From article PMC3572051, “The Budding Yeast Cdc48^Shp1 Complex Promotes Cell Cycle Progression by Positive Regulation of Protein Phosphatase 1 (Glc7)” (PLoS ONE, 2013)

Biological target: T1, Shp1^3HA (S. cerevisiae, UniProt P34223 1-423)
T1 construct: Shp1 (Ubx1), S. cerevisiae; source: S. cerevisiae DF5, chromosomal fusion SHP1^3HA::klTRP1, endogenous expression level, in lysate
T1 sequence (looked up): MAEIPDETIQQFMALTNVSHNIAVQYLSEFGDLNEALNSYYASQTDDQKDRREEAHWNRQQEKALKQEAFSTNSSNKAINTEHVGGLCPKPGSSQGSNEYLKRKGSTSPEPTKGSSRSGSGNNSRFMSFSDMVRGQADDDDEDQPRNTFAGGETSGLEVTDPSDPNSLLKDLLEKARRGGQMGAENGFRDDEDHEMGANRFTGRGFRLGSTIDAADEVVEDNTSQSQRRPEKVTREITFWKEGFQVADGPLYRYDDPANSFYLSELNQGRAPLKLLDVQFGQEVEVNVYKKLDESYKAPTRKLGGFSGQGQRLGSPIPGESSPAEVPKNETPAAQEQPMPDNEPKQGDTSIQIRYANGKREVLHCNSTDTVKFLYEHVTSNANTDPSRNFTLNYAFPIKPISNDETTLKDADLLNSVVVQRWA
Test: co-IP; yeast lysates; immunoprecipitation with pre-coupled anti-HA antibody (overnight, 4°C), IP buffer 50 mM Tris/HCl pH 7.5, 100 mM KCl, 5 mM MgCl2, NP-40, 10% glycerol; Western blot; for Glc8^3HA lysates of asynchronous or α-factor-arrested wild-type and shp1-7 cells
Settings: partners not purified

fold difference of the Glc7 signal in the IP lane (relative to the heavy chain signal) against the negative control: > 8 fold
B1: Glc7^3myc (enzyme, S. cerevisiae, UniProt P32598 1-312, looked up)
chain: MDSQPVDVDNIIDRLLEVRGSKPGQQVDLEENEIRYLCSKARSIFIKQPILLELEAPIKICGDIHGQYYDLLRLFEYGGFPPESNYLFLGDYVDRGKQSLETICLLLAYKIKYPENFFILRGNHECASINRIYGFYDECKRRYNIKLWKTFTDCFNCLPIAAIIDEKIFCMHGGLSPDLNSMEQIRRVMRPTDIPDVGLLCDLLWSDPDKDIVGWSENDRGVSFTFGPDVVNRFLQKQDMELICRAHQVVEDGYEFFSKRQLVTLFSAPNYCGEFDNAGAMMSVDESLLCSFQILKPAQKSLPRQAGGRKKK
notes: Glc7, catalytic subunit of protein phosphatase 1, S. cerevisiae; carboxyl-terminally tagged at its authentic chromosomal locus; also called PP1 catalytic subunit; source: S. cerevisiae DF5, expressed from the chromosomal GLC7 locus as sole source of Glc7, in lysate; not shown: 3myc, C-terminal, kept
